These results are taken from patent US20060140889A1 (L MABS B V, published 2006).

Where a chain is given by its changes, count along the chain named.

The target in assay [1] is T1, chicken lysozyme (chicken, UniProt P00698 19-147).
T1 construct: also called Egg White Lysozyme
As to the kind of experiment: ELISA on lysozyme, 100-fold dilution of the protein extract. (An ELISA detects its analyte on a solid surface through an enzyme-linked reagent.)

Assay [2] has as its target T1, chicken lysozyme. As to the kind of experiment: ELISA, well coated with lysozyme (100 ug/ml) and blocked with ELK, ~50 ng iMab per well, anti-VSV-HRP; urea purification.
Assay [3] addresses T1, chicken lysozyme. Put plainly: ELISA.
The target in the next assay is T2, bovine lactoferrin (bovine, UniProt P24627 20-708).
T2 construct: also called LF
Put plainly: not described at this place.

T1 sequence (P00698 19-147 limits assumed): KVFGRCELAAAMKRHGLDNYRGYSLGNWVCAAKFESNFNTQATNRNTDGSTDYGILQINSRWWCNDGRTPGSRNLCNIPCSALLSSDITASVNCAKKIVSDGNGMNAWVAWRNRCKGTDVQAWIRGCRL
T2 sequence (P24627 20-708 limits assumed): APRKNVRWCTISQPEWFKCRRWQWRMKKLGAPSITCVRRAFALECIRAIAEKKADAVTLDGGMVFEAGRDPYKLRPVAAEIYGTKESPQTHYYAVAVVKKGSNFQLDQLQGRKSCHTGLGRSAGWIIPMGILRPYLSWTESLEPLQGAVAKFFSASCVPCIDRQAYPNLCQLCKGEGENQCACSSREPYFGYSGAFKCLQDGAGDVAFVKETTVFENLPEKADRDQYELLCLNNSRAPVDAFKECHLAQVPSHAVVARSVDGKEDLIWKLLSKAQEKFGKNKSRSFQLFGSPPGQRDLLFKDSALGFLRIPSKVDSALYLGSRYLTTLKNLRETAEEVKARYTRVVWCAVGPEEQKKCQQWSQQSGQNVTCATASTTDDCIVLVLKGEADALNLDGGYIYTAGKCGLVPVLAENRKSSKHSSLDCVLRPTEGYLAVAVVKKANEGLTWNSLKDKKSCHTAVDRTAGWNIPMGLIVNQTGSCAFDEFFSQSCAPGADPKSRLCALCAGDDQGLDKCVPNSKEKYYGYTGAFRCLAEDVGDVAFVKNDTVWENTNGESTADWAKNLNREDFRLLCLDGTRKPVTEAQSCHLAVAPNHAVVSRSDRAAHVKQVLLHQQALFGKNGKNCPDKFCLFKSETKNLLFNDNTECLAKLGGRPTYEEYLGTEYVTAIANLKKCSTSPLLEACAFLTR

B1: iMab111 (designed binder)
chain: NVKLVCKGGNFVENDDDLKLTCRAEGYTIGPYCMGWFRQAPNDDSTNVATINMGGGITYYGDSVKERFDIRRDNASNTVTLSMDDLQPEDSAEYNCAGDSTIYASYYECGHGLSTGGYGYDSHYRCQGTDVTVSS
notes: iMab100 derivative with two extra cysteines in the core; E. coli, CM126
As to B1, the “signal over background signal (fold)” value in the assay with chicken lysozyme [1] was ~20 fold. In addition, the “Absorbtion (450 nm)” value in the assay with chicken lysozyme [2] came to 0.42 absorbance at 450 nm.

B2: iMab115 (designed binder)
chain: B1 chain with C6E, N74Q, C126G
notes: iMab100 with the asparagine of the putative N-glycosylation site in AR3 changed to glutamine; expressed in E. coli as a 21 kD protein; also called iMab15
Take B2: the binding result with chicken lysozyme [3] is given as “binds”.

B3: iMab116 (designed binder)
chain: B1 chain with C6E, C96G, A104G, C126G
notes: iMab100 derivative lacking one core cysteine; E. coli, CM126; also called iMab16; not shown: C-terminal linker, VSV tag and 6x His tag of vector CM126
On to B3, for which the “Absorbtion (450 nm)” value with chicken lysozyme [2] was found to be 0.238 absorbance at 450 nm.

B4: iMab122 (designed binder)
chain: NVKLVEKGGNFVENDDDLKLTCRASGRTFSSRTMGWFRQAPNDDSTNVATIRWNGGSTYYTNYGDSVKERFDIRVDQASNTVTLSMDDLQPEDSAEYNCAGTDIGDGWSGRYDYRGQGTDVTVSS
notes: 9 beta-strand iMab; E. coli, CM126; not shown: C-terminal linker, VSV tag and 6x His tag of vector CM126
B4: in the assay with chicken lysozyme [2], the “Absorbtion (450 nm)” value is 0.271 absorbance at 450 nm.

B5: iMab142-xx-0002 (designed binder, not shown: small tags and cut ends)
chain: MNVKLVEKGGNFVENDDDLKLTCRAEGYTIGPYSMGWFRQAPNDDSTNVSCINMGGGITYYGDSVKERFDIRRDNASNTVTLSMDDLQPEDSAVYNCAADWWDGFTYGSTWYNPSSYDYRGQGTDVTVSS
notes: also called iMab142-xx-002
For B5, the binding result with bovine lactoferrin was “binds”.

B6: iMab148-xx-0002 (designed binder)
chain: B5 chain with K4H, K8R, K20N, S50A, C51T, K66D
notes: Derivative of iMab142-xx-0002 in which all lysine residues were replaced; xx = C-terminal tag not specified
On to B6, for which the binding result with bovine lactoferrin was “binds”.
